Assay results from article PMC2762204 (Cancer research, 2009).
Where a chain is given by its changes, count along the chain named. One block for each molecule: values may come before it.

Key:
[1] = target: FLAG-Sprouty2 co-expressed with active MEK:EE (phosphorylated) (mouse) (UniProt Q9QXV8); assay: pull-down
Myc-B-Raf wild-type = Myc-B-Raf wild-type (UniProt P15056 1-766); assay: co-IP
Myc-B-Raf wild-type, sequence (P15056 whole entry): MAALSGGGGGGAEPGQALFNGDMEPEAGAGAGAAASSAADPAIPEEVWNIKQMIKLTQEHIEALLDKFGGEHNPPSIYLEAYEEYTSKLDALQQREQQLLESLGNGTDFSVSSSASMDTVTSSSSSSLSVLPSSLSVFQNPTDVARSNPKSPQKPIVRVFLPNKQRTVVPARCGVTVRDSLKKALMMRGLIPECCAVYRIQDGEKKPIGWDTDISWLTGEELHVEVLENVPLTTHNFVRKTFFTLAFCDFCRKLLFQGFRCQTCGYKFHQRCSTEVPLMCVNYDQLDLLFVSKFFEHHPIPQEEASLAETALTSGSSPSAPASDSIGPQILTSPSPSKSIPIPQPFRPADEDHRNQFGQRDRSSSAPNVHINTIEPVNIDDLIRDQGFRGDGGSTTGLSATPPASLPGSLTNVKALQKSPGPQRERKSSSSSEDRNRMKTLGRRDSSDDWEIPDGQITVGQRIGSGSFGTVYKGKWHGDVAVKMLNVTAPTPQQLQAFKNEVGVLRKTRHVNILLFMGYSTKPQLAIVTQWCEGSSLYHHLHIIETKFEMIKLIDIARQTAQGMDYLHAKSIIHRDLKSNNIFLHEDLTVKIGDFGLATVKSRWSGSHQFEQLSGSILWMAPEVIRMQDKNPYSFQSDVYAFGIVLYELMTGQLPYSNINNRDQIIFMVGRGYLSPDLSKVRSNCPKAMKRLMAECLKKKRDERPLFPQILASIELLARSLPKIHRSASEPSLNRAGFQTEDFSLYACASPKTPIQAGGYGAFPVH

percent reduction of binding against Sprouty2 expressed without MEK:EE [1]: 40%
Molecule: Recombinant human wild-type GST-B-Raf catalytic domain (domain or fragment)

fold change of B-Raf binding against wild-type Sprouty2 (Myc-B-Raf wild-type): ~2 fold
B1: FLAG-Sprouty2 2A (S111 and S120 to alanines) (natural protein, mouse, UniProt Q9QXV8 1-315, looked up)
chain: MEARAQSGNGSQPLLQTAHDSGRQRGEPDPRDALTQQVHVLSLDQIRAIRNTNEYTEGPTVVPRPGLKPAPRPSTQHKHERLHGLPEHRQPPRLQPSQVHSSRAPLSRSIATVSSGSRSATRTSTSSSSSEQRLLGPSFSHGPAAADGIIRVQPKSELKPGDVKPLSKDDLGLHAYRCEDCGKCKCKECTYPRPLPSDWICDKQCLCSAQNVIDYGTCVCCVKGLFYHCSNDDEDNCADNPCSCSQSHCCTRWSAMGVMSLFLPCLWCYLPAKGCLKLCQGCYDRVNRPGCRCKNSNTVCCKVPTVPPRNFEKPT

fold change of B-Raf binding against wild-type Sprouty2 (Myc-B-Raf wild-type): ~3.5 fold
B2: FLAG-Sprouty2 6A (all six serine sites to alanines) (natural protein, mouse, UniProt Q9QXV8 1-315, looked up)
chain: B1 chain with S7A, S42A, S140A, S167A
